Reference: US8344120B2, “Nucleic acid molecules encoding rage fusion proteins” (TransTech Pharma, Inc., priority 2006, dated 2013)
Values joined by “and” are separate entries in the source; they are usually repeats but may differ in a detail not shown here. Equal entries are not always repeated.

Columns and labels:
[1] = test system: allogeneic rejection of transplanted islet cells; test: Allogeneic islet transplantation in diabetic B6 mice; format: in vivo; details: for day of graft loss for each animal: BALB/c islets in B6 mice; for day of graft loss, Mean: n 8
Method: C57BL/6J (6-8 week old) (B6) mice were made diabetic by a single intravenous injection of streptozotocin (STZ) (Sigma Chemical Co., St. Louis, Mo.) at 200 mg/kg.
BALB/cJ (6-8 week old) (BALB) mice served as donors for islet transplantation, thus providing an allo-mismatch for islet transplants.
Mice (BALB/c) were anesthetized with ketamine HCl/xylazine HCl solution (Sigma, St. Louis Mo.). After intraductal injection of 3 ml of cold Hank's balanced salt solution (HBSS, Gibco, Grand Island N.Y.) containing 1.5 mg/ml of collagenase P (Roche Diagnostics, Branchburg, N.J.), pancreata were surgically procured and digested at 37° C. for 20 mins. Islets were washed with HBSS and purified by discontinuous gradient centrifugation using Polysucrose 400 (Cellgro, Herndon Va.) having four different densities (26%, 23%, 20%, and 11%). The tissue fragments at the interface of the 20% and 23% layers were collected, washed and resuspended in HBSS. Individual islets, free of attached acinar, vascular and ductal tissues were handpicked under an inverted microscope, yielding highly purified islets for transplantation.
Streptozotocin-induced diabetic C57BL/6 (B6) mice received islet grafts within 2 days of the diagnosis of diabetes. BALB/cJ (6-8 week old) (BALB) mice served as donors for allogeneic islet transplantation. For transplantation, 500-600 freshly isolated islets (i.e., approximately 550 islet equivalents) from donor mice were picked up with an infusion set and transplanted into the subcapular space of the right kidney of a recipient.
Test compounds were administered as soon as the islets were transplanted; administration continued for about 60 days, depending upon how the control animal was faring.
Islet graft function was monitored by serial blood glucose measurements daily for the first 2 weeks after islet transplantation, followed by every other day thereafter. Reversal of diabetes was defined as blood a glucose level of less than 200 mg/dl on two consecutive measurements. Graft loss was determined when blood glucose exceeded 250 mg/dl on two consecutive measurements.

S100b (S100) = target: T1, S100b (S100) (Homo sapiens, UniProt P04271); test: In vitro ligand binding ELISA, immobilized S100b; details: ligand 5 micrograms per well; fusion protein at increasing dilutions, 37° C. one hour
T1 sequence (P04271 1-92): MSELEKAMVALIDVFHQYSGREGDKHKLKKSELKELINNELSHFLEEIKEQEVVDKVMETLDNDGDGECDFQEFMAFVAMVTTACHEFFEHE
Method: For example, the RAGE fusion protein may be used in a binding assay to identify potential RAGE ligands. In one example embodiment of such a binding assay, a known RAGE ligand may coated onto a solid substrate (e.g., Maxisorb plates) at a concentration of about 5 micrograms per well, where each well contains a total volume of about 100 microliters (4). The plates may be incubated at 4° C. overnight to allow the ligand to absorb or bind to the substrate. Alternatively, shorter incubation periods at higher temperature (e.g., room temperature) may be used. […] The RAGE fusion protein bound to the immobilized ligand may be detected in a variety of ways. […] The bound complex may be detected by adding the alkaline phosphatase substrate, para-nitrophenylphosphate (PNPP), and measuring conversion of PNPP to para-nitrophenol (PNP) as an increase in absorbance at 405 nm. […] In the absence of ligand (i.e., coating with only BSA) there was no increase in absorbance. […] Binding was detected by the addition of an immunodetection complex containing a monoclonal mouse anti-human IgG1 diluted 1:11,000 to a final assay concentration (FAC) of 21 ng/100 μL, a biotinylated goat anti-mouse IgG diluted 1:500, to a FAC of […], and an avidin-linked alkaline phosphatase. […]

binding to immobilized S100b (increase in absorbance at 405 nm) (S100b (S100)): specifically interact
B1: TTP-4000: four domain RAGE fusion protein: human RAGE N-terminal sequence (to position 251) linked to human IgG Fc (γ1) without hinge; SEQ ID NO: 34/56 (protein)
chain: QNITARIGEPLVLKCKGAPKKPPQRLEWKLNTGRTEAWKVLSPQGGGPWDSVARVLPNGSLFLPAVGIQDEGIFRCQAMNRNGKETKSNYRVRVYQIPGKPEIVDSASELTAGVPNKVGTCVSEGSYPAGTLSWHLDGKPLVPNEKGVSVKEQTRRHPETGLFTLQSELMVTPARGGDPRPTFSCSFSPGLPRHRALRTAPIQPRVWEPVPLEEVQLVVEPEGGAVAPPSVFLFPPKPKDTLMISRTPEVTCVVVDVSHEDPEVKFNWYVDGVEVHNAKTKPREEQYNSTYRVVSVLTVLHQDWLNGKEYKCKVSNKALPAPIEKTISKAKGQPREPQVYTLPPSRDELTKNQVSLTCLVKGFYPSDIAVEWESNGQPENNYKTTPPVLDSDGSFFLYSKLTVDKSRWQQGNVFSCSVMHEALHNHYTQKSLSLSPGK
day of graft loss for each animal ([1]; 300 ug + 30 ug qod ip): 12 day (2×) and 11 day (2×) and 8 day (2×) and 13 day and 14 day | day of graft loss, Mean ([1]; 300 ug + 30 ug qod ip): 11.125 days | day of graft loss for each animal ([1]; 300 ug LD + 100 ug qod ip): 13 day (2×) and 12 day and 16 day (2×) and 15 day and 14 day (2×) | day of graft loss, Mean ([1]; 300 ug LD + 100 ug qod ip): 14.125 days | time before detection of graft failure, in words ([1]; Groups 1 and 3 versus untreated, PBS or human IgG1): increase in the time before detection of graft failure
